Data on 2 molecules can be found in patent US20180002439A1 (INSTITUT NATIONAL DE LA SANTE ET DE LA RECHERCHE MEDICALE …, published 2018).

Experiment [1] deals with mesothelin as expressed on the plasma membrane of human cells (HeLa, OVCAR-3, SK-OV-3, A1847) (human) (UniProt Q13421). As to the kind of experiment: flow cytometry on Hela cells, chemically biotinylated mAb K1, detection with PE streptavidin [continued) C].
Experiment [2] has the same target. Put plainly: flow cytometry on HeLa cells, chemically biotinylated antibody, PE-streptavidin, Lineweaver-Burk plot.
Experiment [3] has as its target T1, mesothelin as expressed on the plasma membrane of human cells (HeLa, OVCAR-3, SK-OV-3, A1847) (human, UniProt Q13421 296-598).
T1 construct: whole, on cells; also called cellularly expressed mesothelin; cell-surface mesothelin
Put plainly: flow cytometry on Hela cells, chemically biotinylated Nb-A1, detection with PE streptavidin. Here is the method: (§1) FIG. 4: Affinity determination of nanobodies for mesothelin as expressed on the plasma membrane of cells. Hela cells were incubated with serial dilutions of in vitro biotinylated anti-mesothelin Nb-A1 (A), Nb-C6 (B) or commercial mAb K1 antibody (•; (C)). Bound antibodies were detected by flow cytometry using PE-conjugated streptavidin. Insets are Lineweaver-Burk plots used to determine the dissociation constant. Error bars represent the standard deviation of experiments performed in triplicate.
(§2) The affinity of Nb-A1 and Nb-C6 for cellularly expressed mesothelin was determined by flow cytometry using HeLa cells for the antigen as described previously; Even-Desrumeaux et al., Mol Biosyst 8(2012), 2385-2394. Briefly, binding to HeLa cells was detected using flow cytometry after incubation with various concentrations of biotinylated nanobodies followed by PE-labeled streptavidin. Apparent KD values were determined by the equation KD=a*Fₘₐₓ in which (a) is the regression line and Fₘₐₓ is the maximum of fluorescence.

The target in experiment [4] is T1, mesothelin as expressed on the plasma …. Put plainly: flow cytometry on HeLa cells, chemically biotinylated nanobody, PE-streptavidin, Lineweaver-Burk plot. The procedure:
as §1, §2

Sequence of mesothelin as expressed on the plasma membrane of human cells (HeLa, OVCAR-3, SK-OV-3, A1847) (human) (Q13421 other isoform, or with tags, fused parts or gaps limits assumed): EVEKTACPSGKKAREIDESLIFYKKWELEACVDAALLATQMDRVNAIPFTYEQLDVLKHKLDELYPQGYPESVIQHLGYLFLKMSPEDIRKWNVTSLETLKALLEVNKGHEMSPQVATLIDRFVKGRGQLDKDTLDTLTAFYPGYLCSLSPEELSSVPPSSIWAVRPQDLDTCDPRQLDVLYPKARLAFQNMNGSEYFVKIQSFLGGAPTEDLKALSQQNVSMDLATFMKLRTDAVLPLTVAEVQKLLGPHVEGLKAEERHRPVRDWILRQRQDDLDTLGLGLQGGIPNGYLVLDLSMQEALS
T1 sequence (Q13421 other isoform, or with tags, fused parts or gaps limits assumed): as above

The molecule “anti-mesothelin mouse monoclonal antibody K1 (Santa Cruz Biotechnology)” displayed an EC50 (read off the curve) in experiment [1] of 2 nM. Also, the Kd in experiment [2] came to 2 nM.

B1: Nb-A1 (nanobody A1, comprising amino acid sequence SEQ ID NO:1) (VHH)
VHH: QVQLVQSGGGLVHPGGSLRLSCAASGIDLSLYRMRWYRQAPGKERDLVALITDDGTSYYEDSVKGRFTITRDNPSNKVFLQMNSLKPEDTAVYYCNAETPLSPVNYWGQGTQVTVS
notes: Llama VHH made in the periplasm of E. coli with a C-terminal hexahistidine tag; For the KD measurement it was chemically biotinylated (NHS-PEO4-biotin); not shown: C-terminal hexahistidine tag, named in words only
For the molecule B1, the “EC50 (read off the curve)” value in experiment [3] was approximately 20 nM. Further, the Kd in experiment [4] was approximately 15 nM.
